Assay results as given in patent US20020049180A1.

Target: GST-fusion protein containing amino acids 327-517 of KIAA0175 (human) (UniProt Q14680)
Assay: cell-based or functional assay

increase of phosphorylation by ATM immunoprecipitated from gamma-irradiated cells: 2 to 3 fold
Substance: Ataxia telangiectasia mutated (ATM) (from UniProt Q13315 2-3056) (enzyme)
